From publication PMC12292289, “Identification of a Novel Antibacterial Function of Mammalian Calreticulin” (Biomolecules, 2025)

B1: recombinant human calreticulin (natural protein, UniProt P27797 18-417, looked up)
chain: EPAVYFKEQFLDGDGWTSRWIESKHKSDFGKFVLSSGKFYGDEEKDKGLQTSQDARFYALSASFEPFSNKGQTLVVQFTVKHEQNIDCGGGYVKLFPNSLDQTDMHGDSEYNIMFGPDICGPGTKKVHVIFNYKGKNVLINKDIRCKDDEFTHLYTLIVRPDNTYEVKIDNSQVESGSLEDDWDFLPPKKIKDPDASKPEDWDERAKIDDPTDSKPEDWDKPEHIPDPDAKKPEDWDEEMDGEWEPPVIQNPEYKGEWKPRQIDNPDYKGTWIHPEIDNPEYSPDPSIYAYDNFGVLGLDLWQVKSGTIFDNFLITNDEAYAEEFGNETWGVTKAAEKQMKDKQDEEQRLKEEEEDKKRKEEEEAEDKEDDEDKDEDEEDEEDKEEDEEEDVPGQAKDEL
notes: calreticulin, human; bought recombinant protein (Sino Biological, P27797); P27797 is printed where the reagent list gives catalogue numbers; also called recombinant human calreticulin expressed in HEK293 cells; source: bought: Sino Biological; expressed in HEK293 cells

Assays:
[1] = biological target: recombinant goat calreticulin (Capra hircus (goat)); test: SEC; SEC-HPLC of the purified recombinant protein; retention time compared with that of standards (Figure S1)
[2] = biological target: the molecule itself; test: as above

Molecule	stoichiometry N [1]	stoichiometry N [2]
recombinant goat calreticulin (natural protein)	2	
B1		2
